Test results reported in patent US20260242478A1 (published 2026).
Where no end group is shown, it is not given here.

B1: Phage-2345 (peptide)
peptide: FDMLCNPKWMCEGF
notes: Peptide-180 library clone, tested as clonal phage supernatant (peptide fused to the pIII filament of the bacteriophage)
B2: Phage-2295 (peptide)
peptide: DVMWCIPPWMCEHR
notes: tested as crude clonal phage supernatant
B3: Phage-2346 (peptide)
peptide: WDRLCIPPWMCDVM
notes: as for B1
B4: Phage-2294 (peptide)
peptide: IHMLCSPPWMCVGL
notes: as for B2
B5: Phage-2348 (peptide)
peptide: MEKWCTPSWMCQWM
notes: as for B1
B6: Phage-2292 (peptide)
peptide: NSNWCIPSWMCADI
modifications: cysteine pairing not given here; also: displayed on bacteriophage by fusion to pIII
notes: as for B2
B7: Phage-2303 (peptide)
peptide: LTKWCIPEWMCAVE
modifications: cysteine pairing not given here; also: displayed on bacteriophage by fusion to pIII
B8: Phage-2296 (peptide)
peptide: NVKWCTPPWMCFLD
notes: as for B2
B9: Phage-2298 (peptide)
peptide: WENWCTPEWMCNGF
modifications: cysteine pairing not given here; also: displayed on bacteriophage by fusion to pIII
B10: Phage-2297 (peptide)
peptide: THKWCIPVWMCEHQ
notes: as for B2
B11: Phage-2344 (peptide)
peptide: LMNWCTPAWMCTGF
notes: as for B1
B12: Phage-2293 (peptide)
peptide: VEKWCIPPWMCVNS
notes: as for B2
B13: Phage-2329 (peptide)
peptide: PEKWCIPPWMCTNF
modifications: cysteine pairing not given here; also: displayed on bacteriophage by fusion to pIII
B14: Phage-2347 (peptide)
peptide: SENWCIPNWMCSGL
notes: as for B1
B15: Phage-2334 (peptide)
peptide: EFIRCLPPWMCAGF
modifications: cysteine pairing not given here; also: displayed on bacteriophage by fusion to pIII

Legend:
PSMA Fab (006 PSMA Fab) [1] = target: T1, PSMA Fab (006 PSMA Fab) (biotinylated (site not stated)); assay: phage ELISA, clonal phage on biotinylated PSMA Fab captured on neutravidin plate, anti-M13 HRP detection;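 note: crude clonal phage supernatants added to wells preincubated with PSMA antigen in blocking buffer or with blocking buffer only, giving a competition and a no-competitor control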
T1 construct: also called Anti-PSMA Fab

PSMA Fab (006 PSMA Fab) [2] = target: T1, PSMA Fab (006 PSMA Fab); assay: phage ELISA on captured PSMA Fab, wells pre-incubated with PSMA antigen as competitor
Protocol: (§1) Clonal phage were harvested as crude supernatants and screened via standard ELISAs. […] Prior to the addition of clonal phage. wells were incubated with blocking buffer and PSMA antigen or blocking buffer alone. Without washing or aspirating, clonal phage supernatants were then added to the wells and incubated for a short time. Wells were then washed followed by detection of bound phage using a horse radish conjugated anti-M13 antibody.

[3] = target: Anti-PSMA Fab (006 PSMA Fab); assay: clonal phage ELISA on biotinylated PSMA Fab captured on neutravidin; PSMA antigen as competitor; anti-M13-HRP detection
Protocol: as §1

[4] = target: Anti-PSMA Fab (006 PSMA Fab); assay: clonal phage ELISA on biotinylated PSMA Fab captured on neutravidin; bound phage detected with anti-M13-HRP; no PSMA antigen
Protocol: as §1

PSMA Fab [5] = target: T2, PSMA Fab; assay: clonal phage ELISA on biotinylated PSMA Fab captured on neutravidin, anti-M13 HRP detection;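 note: crude clonal phage supernatants added to wells pretreated with PSMA antigen in blocking buffer or with blocking buffer only, then briefly incubated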
T2 construct: also called Anti-PSMA Fab; 006 PSMA Fab
Protocol: as §1

PSMA Fab [6] = target: T2, PSMA Fab; assay: clonal phage ELISA on captured PSMA Fab pre-incubated with PSMA antigen (competitor: PSMA)
Protocol: as §1

[7] = target: T3, Anti-PSMA Fab (SEQ ID NOs: 19, 20); assay: phage binding ELISA; plate-captured PSMA Fab pre-incubated with PSMA antigen as competitor, anti-M13 HRP detection
T3 construct: Biotinylated and captured on neutravidin coated plates in the phage ELISA; also called 006 PSMA Fab
Protocol: as §1

[8] = target: T3, Anti-PSMA Fab (SEQ ID NOs: 19, 20); assay: phage binding ELISA; clonal phage on plate-captured biotinylated PSMA Fab, anti-M13 HRP detection
Protocol: as §1

Binder	Phage binding ELISA signal, Anti-PSMA Fab (PSMA Fab (006 PSMA Fab) [1])	phage binding ELISA signal (Anti-PSMA Fab pre-incubated with PSMA antigen) (PSMA Fab (006 PSMA Fab) [2])	phage binding ELISA signal (Anti-PSMA Fab, wells pre-incubated with PSMA antigen) [3]	Phage binding ELISA signal, Anti-PSMA Fab [4]	further results
EGISCVPNWMCVGF [Phage-2339]	1.44	0.119			
MEIWCKPAWMCEST [Phage-2310]			0.0714	1.48	
GEIWCTPSWMCWGL [Phage-2341]	1.43	0.0653			
SDTWCIPAWMCEGR [Phage-2343]	1.43	0.0667			
B1					Phage binding ELISA signal, Anti-PSMA Fab (PSMA Fab [5]): 1.43; Phage binding ELISA signal, Anti-PSMA Fab with PSMA antigen (PSMA Fab [6]): 0.0643
EPKWCTPAWMCSIV [Phage-2336]	1.44	0.0668			
MDNWCTPPWMCHGF [Phage-2299]			0.0898	1.49	
EVKWCTPSWMCSGL [Phage-2330]	1.45	0.06			
B2					Anti-PSMA Fab signal in the presence of PSMA [7]: 0.106; Anti-PSMA Fab (SEQ ID NOs: 19, 20) signal [8]: 1.5
B3					Phage binding ELISA signal, Anti-PSMA Fab (PSMA Fab [5]): 1.43; Phage binding ELISA signal, Anti-PSMA Fab with PSMA antigen (PSMA Fab [6]): 0.0803
VVNWCVPEWMCSGF [Phage-2332]	1.45	0.0772			
B4					Anti-PSMA Fab signal in the presence of PSMA [7]: 0.0564; Anti-PSMA Fab (SEQ ID NOs: 19, 20) signal [8]: 1.5
B5					Phage binding ELISA signal, Anti-PSMA Fab (PSMA Fab [5]): 1.43; Phage binding ELISA signal, Anti-PSMA Fab with PSMA antigen (PSMA Fab [6]): 0.0828
ELMWCIPPWMCEHS [Phage-2342]	1.43	0.0888			
B6					Anti-PSMA Fab signal in the presence of PSMA [7]: 0.0741; Anti-PSMA Fab (SEQ ID NOs: 19, 20) signal [8]: 1.5
EWKWCTPPWMCQYE [Phage-2308]			0.0874	1.48	
QNTWCIPPWMCEVF [Phage-2306]			0.0806	1.48	
YDRLCIPMWMCSSV [Phage-2307]			0.0715	1.48	
TVKWCIPSWMCQQS [Phage-2333]	1.44	0.102			
ASNWCIPTWMCEGS [Phage-2335]	1.44	0.0671			
B7			0.102	1.48	

Binder	Phage binding ELISA signal, Anti-PSMA Fab (PSMA Fab (006 PSMA Fab) [1])	phage binding ELISA signal (Anti-PSMA Fab pre-incubated with PSMA antigen) (PSMA Fab (006 PSMA Fab) [2])	phage binding ELISA signal (Anti-PSMA Fab, wells pre-incubated with PSMA antigen) [3]	Phage binding ELISA signal, Anti-PSMA Fab [4]	further results
VQNWCIPAWMCEGK [Phage-2304]			0.0686	1.48	
FEHWCTPEWMCLGM [Phage-2331]	1.45	0.0623			
B8					Anti-PSMA Fab signal in the presence of PSMA [7]: 0.0656; Anti-PSMA Fab (SEQ ID NOs: 19, 20) signal [8]: 1.5
B9			0.0767	1.49	
LVHMCKPAWMCTNL [Phage-2340]	1.44	0.0708			
MVKLCIPEWMCDRQ [Phage-2337]	1.44	0.0609			
WYKWCTPAWMCEIS [Phage-2338]	1.44	0.143			
B10					Anti-PSMA Fab signal in the presence of PSMA [7]: 0.0929; Anti-PSMA Fab (SEQ ID NOs: 19, 20) signal [8]: 1.5
B11					Phage binding ELISA signal, Anti-PSMA Fab (PSMA Fab [5]): 1.43; Phage binding ELISA signal, Anti-PSMA Fab with PSMA antigen (PSMA Fab [6]): 0.0919
FANWCTPSWMCNFT [Phage-2302]			0.152	1.48	
EFKMCIPQWMCQHQ [Phage-2312]			0.0622	1.47	
PEKWCIPDWMCTVY [Phage-2311]			0.0815	1.48	
B12					Anti-PSMA Fab signal in the presence of PSMA [7]: 0.0666; Anti-PSMA Fab (SEQ ID NOs: 19, 20) signal [8]: 1.5
SMKWCTPAWMCERL [Phage-2301]			0.115	1.49	
IEKWCIPLWMCEMQ [Phage-2309]			0.0726	1.48	
B13	1.45	0.065			
WVQWCIPPWMCEPS [Phage-2300]			0.14	1.49	
EAKWCTPPWMCMSM [Phage-2305]			0.0593	1.48	
B14					Phage binding ELISA signal, Anti-PSMA Fab (PSMA Fab [5]): 1.43; Phage binding ELISA signal, Anti-PSMA Fab with PSMA antigen (PSMA Fab [6]): 0.0725
B15	1.44	0.0734			
